According to patent US20200347137A1:
One block for each binder: values may come before it.

Target: PD-L1 recombinant protein (human) (UniProt Q9NZQ7)
Assay: ForteBio Octet RED96, PD-L1 immobilised, antibody in solution

PD-L1 recombinant protein (human), sequence (Q9NZQ7 19-238 limits assumed): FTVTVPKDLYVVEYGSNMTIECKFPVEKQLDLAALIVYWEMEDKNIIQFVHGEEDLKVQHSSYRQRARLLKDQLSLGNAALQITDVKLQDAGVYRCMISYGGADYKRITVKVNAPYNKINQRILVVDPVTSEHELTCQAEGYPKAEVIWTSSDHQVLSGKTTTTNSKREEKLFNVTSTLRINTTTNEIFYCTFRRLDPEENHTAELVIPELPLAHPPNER

- Kd: 0.597 nM
- koff: 0.000303 s⁻¹
- kon: 508000 M⁻¹ s⁻¹
B1: PL221G5 scFv-Fc (Fc fusion, part only; not given: linker and Fc, part only)
chain, part: EVQLLESGGGLVQPGGSLRLSCAASGFSFSSGYDMCWVRQAPGKGLEWIACIAAGSAGITYDANWAKGRFTISRDNSKNTLYLQMNSLRAEDTAVYYCARSAFSFDYAMDLWGQGTLVTVSSGGGGSGGGGSGGGGSGGGGSDIQMTQSPSTLSASVGDRVTITCQASQSISSHLNWYQQKPGKAPKLLIYKASTLASGVPSRFSGSGSGTEFTLTISSLQPDDFATYYCQQGYSWGNVDNVFGGGTKVEIK

- Kd: 1.42 nM
- koff: 0.00055 s⁻¹
- kon: 387000 M⁻¹ s⁻¹
B2: PL004B9 scFv-Fc (Fc fusion, part only; not given: linker and Fc, part only)
chain, part: EVQLVESGGGLVQPGGSLRLSCTVSGIDLSVINMGWVRQAPGKGLEWIGTITYVGNTYYASWAKGRFTISKTSTTVDLKITSPTTEDTAVYYCARESGTIYYSYFNLWGQGTLVTVSSGGGGSGGGGSGGGGSGGGGSAFELTQSPSSLSASVGDRVTIKCQASESISNYLSWYQQIPGKVPKLLIYYASNLASGVPSRFSGSGSGTDFTLTISSLQPEDVATYYCQSYYGGGSAYTFGGGTKVEIK

- Kd: 0.917 nM
- koff: 0.000461 s⁻¹
- kon: 503000 M⁻¹ s⁻¹
B3: PL230C6 scFv-Fc (Fc fusion, part only; not given: linker and Fc, part only)
chain, part: QSVEESGGGLVQPGGSLRLSCTASGIDLNTYDMIWVRQAPGKGLEWVGIITYSGSRYYANWAKGRFTISKDNTKNTVYLQMNSLRAEDTAVYYCARDYMSGSHLWGQGTLVTVSSGGGGSGGGGSGGGGSGGGGSAYDMTQSPSSVSASVGDRVTIKCQASEDIYSFLAWYQQKPGKAPKLLIHSASSLASGVPSRFSGSGSGTDFTLTISSLQPEDFATYYCQQGYGKNNVDNAFGGGTKVEIK
